Consider 1 molecule from PMC12747262 (bioRxiv, 2025).

Test in all cases: BLI
For orientation: Biolayer interferometry detects binding as a change in optical thickness at a sensor tip.

Experiment [1] has as its target PI4KA-TTC7A-FAM126A (1–308) complex (UniProt P42356;Q9ULT0;Q9BYI3).
The target in experiment [2] is PI4KA-TTC7B-FAM126A (1–308) complex (UniProt P42356;Q86TV6;Q9BYI3).
For experiment [3], the target named is TTC7A-FAM126A (1–308) heterodimer (UniProt Q9ULT0;Q9BYI3).
Experiment [4] addresses TTC7A-FAM126B (1–308) heterodimer (UniProt Q9ULT0;Q8IXS8).
In experiment [5] the target is TTC7B-FAM126A (1–308) heterodimer (UniProt Q86TV6;Q9BYI3).
Experiment [6] concerns the target TTC7B-FAM126B (1–308) heterodimer (UniProt Q86TV6;Q8IXS8).

B1: His-tagged MBP-EFR3A (721–791) (domain or fragment)
chain: SNTEEITFEALKKAIDTSGMEEQEKEKRRLVIEKFQKAPFEEIAAQCESKANLLHDRLAQILELTIRPPPS
Regarding B1, the Kd in experiment [1] was 0.34 ± 0.13 nM; in experiment [2], 0.043 ± 0.014 nM; in experiment [3], roughly 0.3 nM; in experiment [4], roughly 0.3 nM; in experiment [5], 0.041 ± 0.025 nM; in experiment [6] it was roughly 0.3 nM.

In general, Kd refers to the constant that tells how readily two partners part at equilibrium. A low value points to higher affinity.
